The target of experiment [1] is binding partner (antigen) of C5A (XPA23). Nature of the experiment: Biacore, K-off, fold vs original. (SPR reads the build-up and loss of mass on a sensor chip optically.)
Experiment [2] concerns the target binding partner of C5A (XPA23). The experiment can be described thus: Biacore.

B1: C5A (XPA23) VH V50G (antibody, V domains shown)
VH: EVQLLESGGGLVQPGGSLRLSCAASGFTFSKYFMFWVRQAPGKGLEWVSGISPSGGMTRYADSVKGRFTISRDNSKNTLYLQMNSLRAEDTAVYYCARVGYGGNSDYWGQGTLVTVSS
VL: DIQMTQSPSSVSASVGDRLTIICRASQDINRWLAWYQQTPGNAPKLLIHSATSLQSGVPSRFSGSGSGTDFTLTINSLQPEDFATYYCQQADSFPLTFGGGTKVEIK
B1: the fold difference in affinity vs original in experiment [1] and in experiment [2] was 0.03 fold in each case.

B2: C5A (XPA23) VH I51V (antibody, V domains shown)
VH: EVQLLESGGGLVQPGGSLRLSCAASGFTFSKYFMFWVRQAPGKGLEWVSVVSPSGGMTRYADSVKGRFTISRDNSKNTLYLQMNSLRAEDTAVYYCARVGYGGNSDYWGQGTLVTVSS
VL: DIQMTQSPSSVSASVGDRLTIICRASQDINRWLAWYQQTPGNAPKLLIHSATSLQSGVPSRFSGSGSGTDFTLTINSLQPEDFATYYCQQADSFPLTFGGGTKVEIK
Take B2: the fold difference in affinity vs original in experiment [1] and in experiment [2] was 0.99 fold throughout.

B3: C5A (XPA23) VH S52P (antibody, V domains shown)
VH: EVQLLESGGGLVQPGGSLRLSCAASGFTFSKYFMFWVRQAPGKGLEWVSVIPPSGGMTRYADSVKGRFTISRDNSKNTLYLQMNSLRAEDTAVYYCARVGYGGNSDYWGQGTLVTVSS
VL: DIQMTQSPSSVSASVGDRLTIICRASQDINRWLAWYQQTPGNAPKLLIHSATSLQSGVPSRFSGSGSGTDFTLTINSLQPEDFATYYCQQADSFPLTFGGGTKVEIK
For the molecule B3, the fold difference in affinity vs original in experiment [1] and in experiment [2] was 0.05 fold in each case.

B4: C5A (XPA23) VH S52A (antibody, V domains shown)
VH: EVQLLESGGGLVQPGGSLRLSCAASGFTFSKYFMFWVRQAPGKGLEWVSVIAPSGGMTRYADSVKGRFTISRDNSKNTLYLQMNSLRAEDTAVYYCARVGYGGNSDYWGQGTLVTVSS
VL: DIQMTQSPSSVSASVGDRLTIICRASQDINRWLAWYQQTPGNAPKLLIHSATSLQSGVPSRFSGSGSGTDFTLTINSLQPEDFATYYCQQADSFPLTFGGGTKVEIK
For the molecule B4, the fold difference in affinity vs original in experiment [1] and in experiment [2] was 0.05 fold in each case.

B5: C5A (XPA23) VH I51G (antibody, V domains shown)
VH: EVQLLESGGGLVQPGGSLRLSCAASGFTFSKYFMFWVRQAPGKGLEWVSVGSPSGGMTRYADSVKGRFTISRDNSKNTLYLQMNSLRAEDTAVYYCARVGYGGNSDYWGQGTLVTVSS
VL: DIQMTQSPSSVSASVGDRLTIICRASQDINRWLAWYQQTPGNAPKLLIHSATSLQSGVPSRFSGSGSGTDFTLTINSLQPEDFATYYCQQADSFPLTFGGGTKVEIK
Consider B5, for which the fold difference in affinity vs original in experiment [1] and in experiment [2] was 0.94 fold in each case.

B6: C5A (XPA23) VH I51F (antibody, V domains shown)
VH: EVQLLESGGGLVQPGGSLRLSCAASGFTFSKYFMFWVRQAPGKGLEWVSVFSPSGGMTRYADSVKGRFTISRDNSKNTLYLQMNSLRAEDTAVYYCARVGYGGNSDYWGQGTLVTVSS
VL: DIQMTQSPSSVSASVGDRLTIICRASQDINRWLAWYQQTPGNAPKLLIHSATSLQSGVPSRFSGSGSGTDFTLTINSLQPEDFATYYCQQADSFPLTFGGGTKVEIK
With B6, the fold difference in affinity vs original in experiment [1] turned out to be 0.9 fold. For the same molecule, in experiment [2], the fold affinity vs original came to 0.9 fold.

B7: C5A (XPA23) VH V50L (antibody, V domains shown)
VH: EVQLLESGGGLVQPGGSLRLSCAASGFTFSKYFMFWVRQAPGKGLEWVSLISPSGGMTRYADSVKGRFTISRDNSKNTLYLQMNSLRAEDTAVYYCARVGYGGNSDYWGQGTLVTVSS
VL: DIQMTQSPSSVSASVGDRLTIICRASQDINRWLAWYQQTPGNAPKLLIHSATSLQSGVPSRFSGSGSGTDFTLTINSLQPEDFATYYCQQADSFPLTFGGGTKVEIK
Consider B7, for which the fold difference in affinity vs original in experiment [1] and in experiment [2] was 0.09 fold in each case.

B8: C5A (XPA23) VH S52V (antibody, V domains shown)
VH: EVQLLESGGGLVQPGGSLRLSCAASGFTFSKYFMFWVRQAPGKGLEWVSVIVPSGGMTRYADSVKGRFTISRDNSKNTLYLQMNSLRAEDTAVYYCARVGYGGNSDYWGQGTLVTVSS
VL: DIQMTQSPSSVSASVGDRLTIICRASQDINRWLAWYQQTPGNAPKLLIHSATSLQSGVPSRFSGSGSGTDFTLTINSLQPEDFATYYCQQADSFPLTFGGGTKVEIK
In the case of B8, the fold difference in affinity vs original in experiment [1] and in experiment [2] was 0.04 fold throughout.

B9: C5A (XPA23) VH I51L (antibody, V domains shown)
VH: EVQLLESGGGLVQPGGSLRLSCAASGFTFSKYFMFWVRQAPGKGLEWVSVLSPSGGMTRYADSVKGRFTISRDNSKNTLYLQMNSLRAEDTAVYYCARVGYGGNSDYWGQGTLVTVSS
VL: DIQMTQSPSSVSASVGDRLTIICRASQDINRWLAWYQQTPGNAPKLLIHSATSLQSGVPSRFSGSGSGTDFTLTINSLQPEDFATYYCQQADSFPLTFGGGTKVEIK
Regarding B9, the fold difference in affinity vs original in experiment [1] and in experiment [2] was 0.79 fold throughout.

B10: C5A (XPA23) VH V50A (antibody, V domains shown)
VH: EVQLLESGGGLVQPGGSLRLSCAASGFTFSKYFMFWVRQAPGKGLEWVSAISPSGGMTRYADSVKGRFTISRDNSKNTLYLQMNSLRAEDTAVYYCARVGYGGNSDYWGQGTLVTVSS
VL: DIQMTQSPSSVSASVGDRLTIICRASQDINRWLAWYQQTPGNAPKLLIHSATSLQSGVPSRFSGSGSGTDFTLTINSLQPEDFATYYCQQADSFPLTFGGGTKVEIK
With B10, the fold difference in affinity vs original in experiment [1] and in experiment [2] was 0.09 fold each time.

B11: C5A (XPA23) VH S52G (antibody, V domains shown)
VH: EVQLLESGGGLVQPGGSLRLSCAASGFTFSKYFMFWVRQAPGKGLEWVSVIGPSGGMTRYADSVKGRFTISRDNSKNTLYLQMNSLRAEDTAVYYCARVGYGGNSDYWGQGTLVTVSS
VL: DIQMTQSPSSVSASVGDRLTIICRASQDINRWLAWYQQTPGNAPKLLIHSATSLQSGVPSRFSGSGSGTDFTLTINSLQPEDFATYYCQQADSFPLTFGGGTKVEIK
B11: the fold difference in affinity vs original in experiment [1] and in experiment [2] was 0.03 fold each time.

B12: C5A (XPA23) VH V50I (antibody, V domains shown)
VH: EVQLLESGGGLVQPGGSLRLSCAASGFTFSKYFMFWVRQAPGKGLEWVSIISPSGGMTRYADSVKGRFTISRDNSKNTLYLQMNSLRAEDTAVYYCARVGYGGNSDYWGQGTLVTVSS
VL: DIQMTQSPSSVSASVGDRLTIICRASQDINRWLAWYQQTPGNAPKLLIHSATSLQSGVPSRFSGSGSGTDFTLTINSLQPEDFATYYCQQADSFPLTFGGGTKVEIK
Regarding B12, the fold difference in affinity vs original in experiment [1] and in experiment [2] was 0.1 fold in each case.

B13: C5A (XPA23) VH I51A (antibody, V domains shown)
VH: EVQLLESGGGLVQPGGSLRLSCAASGFTFSKYFMFWVRQAPGKGLEWVSVASPSGGMTRYADSVKGRFTISRDNSKNTLYLQMNSLRAEDTAVYYCARVGYGGNSDYWGQGTLVTVSS
VL: DIQMTQSPSSVSASVGDRLTIICRASQDINRWLAWYQQTPGNAPKLLIHSATSLQSGVPSRFSGSGSGTDFTLTINSLQPEDFATYYCQQADSFPLTFGGGTKVEIK
Regarding B13, the fold difference in affinity vs original in experiment [1] and in experiment [2] was 1.04 fold throughout.
